# Fewer inactive variants are shown than the library holds.
# B1: TPR 5TU (parent)
# chain: GGAUCUUCUCGAUCUAACAAAAAAGACAAAUCUGCCACAAAGCUUGAGAGCAUCUUCGGAUGCAGAGGCGGCAGCCUUCGGUGGCGCGAUAGCGCCAACGUUCUCAACUAUGACACGCAAAACGCGUGCUCCGUUGAAUGGAGUUUAUCAUG
# Variants of: B1
# Assay: polymerase ribozyme fitness, log enrichment relative to wild type (log ratio); higher = more active; in vitro selection for triplet polymerase activity
# Outline: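 Fitness is a logarithmic measure of how a genotype enriched relative to the wild type, with replicate averages weighted by inverse variance. The logarithm uses base 2, and enrichment came from Illumina sequencing of input and output libraries. Those libraries were PCR-built, transcribed mutants of each subunit of a heterodimeric triplet polymerase ribozyme, passed through one triplicate in vitro selection round that included frozen incubation at −7 °C, gel excision of extended constructs and streptavidin-bead capture. Genotypes were kept only if they had ≥10 input reads and ≥1 read per output.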
row,Variant,polymerase ribozyme fitness (log ratio)
1,GGAUCUUCUCGGUCUAACAAAAAAGACAAAUCUGCCACAAAGCUUGAGAGCAUCUUCGGAUGCAGAGGCGGCAGCCUUCGGUGGCGCGGUAGCGCCAACGUUCUCAACUAUGACACGCAAAACGCGUGCUCCGUUGAAUGGAGUUUAUCAUG,-1.16
2,GGAUCUUCUCGGUCUAACAAAAAAGACAAAUCUGCCACCAAGCUUGAGAGCAUCUUCGGAUGCAGAGGCGGCAGCCUUCGGUGACGCGAUAGCGCCAACGUUCUCAACUAUGACACGCAAAACGCGUGCUCCGUUGACUGGAUUUUACCAUG,≤ -4.2
3,GGAUCUUCUCGGUCUAACAAAAAAGACACAUCUGGCACAAAGCUUGAGAGCAUCUUCGGAUGCAGAGGCGGCAGCCUUCGGUGGCGCGAUAGCGACAACGUUCUCAACUAUGACACGAAAAACGCGUGCUCCCUUGAAUGGAGUUUAUCAUG,≤ -4.2
4,GGAUCUUCUCGCUCUAACAAAAAAGACAAAUCUGCCACAAAGCUUGAGAGCAUCUUCGGAUGCAGAGGCGGCAGCCUUCGGUGGCGCGAGAGCGCCAACGUUCUCAGCUAUGACACGCAAAACGCGUGCUCCGUUGAGUGGAGUUUAUCAUG,≤ -4.2
5,GGAUCUUCUCGGUCUAAUAAAAAAGACAAAUCUGCCACAAAGCUUGAGAGCAUCUUCGGAUGCAGAGGCGGCAGCCUUCGGUUGCGCGGUAGCGCUAACGUUCUCAACUAUGACACGCAAAACGCGUGCUCCGUUGAAUGGAGUUUAUCAUG,-1.73
6,GGAUCUUCUCGGUCUAACAAAAAAGACAAAUCUGCCGCAAAGCUUGAGAGCAUAUUUGGAUGCAGAGGCGACAGCCUUCGGUGGCGCGAUAGCGCCAACGUUCUCAACUAUGACGCGCAAAACGCGUGCUCCGUUGAAUGGAGUUUAUCAUG,≤ -4.2
7,GGAUCUUCUCGGUUUAACGAUAAAGACGAAUCUGCCACAAAGCUUGAGAGCAUCUUCGGAUGCACAGGCGGCAGCCUUCGGUGCCGCGAUAGCGCCAACGUUCUCAACUAUGACACGCAAAACUCGUGCUCCGUUGAAUGGACUCUAUCAUG,≤ -4.2
8,GGAUCUUCUCGGUCUAACAAAAAAGACAAAUCUGCCACAAAGCUUGAGAGCAUAUUCGGAUGCAGAGGCGGCAGCCUUCGGUGGCGCGAUAGCGCCAAUGUUCUCAACUAUGACACGCAAAACGCGUGCUCCGUUGAAUGGAGUUUAUCAUG,-1.32
9,GGAUCUUCUCGGUCUAACAAAAAAGAAAAAUCUGCCACAAAGCUUGAGAGCAUCUUCGGAUGCAGAGGCGGCAGCAUUCGGUGGCGCGAUAGCGCCAACGUUCUCAACUAUGACACGCAAAACGCGUGCUCCGUUGAAUGGAGUUUCACAUG,≤ -4.2
10,GGAUCUUCUCGGUCUAACAACAGAGACAAAUCUGCCACAAAGCUUGAGAGCAUCUUCGGAUGCAGAGGCGGCAGCGUUCGGUGGCGCGAUAGCGCCAACGUUCUCAACUAUGACAGGCAAAACGCGUGCUCCAUUGAAUGGAGUUUAUCAUG,≤ -4.2
11,GGAUCUUCUCGGUCUAACAAAAAAGACAAAUCUGCCACAAAGCUUGAGAGCAUCUUCGGAUGCAGAGGCGGCUGCCUUCGGUGGCGCGAUAGCGCAAACGUUCUCAACAAUGACAUGCAAAACGCGUGCUCCGUUGAAUGGAGUUUAUCAUG,-2.66
12,GGAUCUUCUCGGUCUAACAAAAAAGACAAAUCUGCAACAAAGCUUGAGAGCAUCUUCGGAUGCAGAGGUGGCAGCCUUCGGUGGGGCGCUAGCGCCAACGUUCUCAACUAUGUCACGCAAAACGCGUGCUCCGUUGAAUGGAGUUUAUCAUG,≤ -4.2
13,GGAUCUUCUCGGUCUAACAAAAAAGACAAAUCUGCCACAAAGCUUGAGAGCAUCUUCGGAUGCAGAGGCGGUAGCCUUCGGUGGCGCUAUAGCGCCAACGUUCUCAACUAUGACACGCAUAACGCGUGCUCCGUUGAAUGUAGUUUAUCAUG,≤ -4.2
14,GGAUCUUCUCGGUCUAACAAAAAAGACAAAUCUGUCACAAAGCUUGAGAGCAUCGUCGGAUGCAGAGGCGGCAGCCUUCGGUGGCGGGAUAGCGCCAACGUUCUCAACUAUGACUCGCAAAACGCGUGCUCCGUUGAAUGGAGUUUAUCAUG,-4.17
15,GGAUCUUCUCGGUCUAACAAAAAAGACAAAUUUGCCACAAAGCUUGAGAGCAUCUUCGGAUGCAGAGGCGGCAGCCUUCGGUGGAGCGAUAGCGCCAACGUUCUCAACUAUGACACGCAAAACGCGUGCUCCGUUGCAUGGAGUUUAUCAUG,≤ -4.2
16,GGAUCUUCUCGGUCUAACAAAAAAGACAAAUCUGUCACAAAGCUUGAGAGCAUCUUCGGAUGCAGAGGCGGCAGCCUUCGGUAGCGCGAUAGCGCCAACGUUCUCAACUAUGACACGCAAAACGCGUGCUCCGUUGAAUGGAGUUUAUCAUG,-0.598
17,GGAUCUUCUCGGUCUUACAAAAAAGACAAAUCUGCCACAAAGCUUGAGAGCAUUUUCGGAUGCAGAGGCGGCGGCCUUCGGUUCCGCGAUAGCGGCAACGUUCUCAACUAUGACACGCAAAACGCGUGCUCCGUUGAAUCGAGUUUAUCAUG,≤ -4.2
18,GGAUCUUCUCGGUCUAACAAAAAAGACAAAUCUGCCACAAAGCUUGAGAGCAUCUUCGGAUGUAGAGGCGGCAGCCUUCGGUCGCGCGAUAGCGUCAACGUUCUCAACAAUGACACGCAAAACGCGUGCUCCGUUGAAUGGAGUUUAUCAUG,-2.16
19,GGAUCUUCUCGGUCUAACAAAAAAGACAAAUCUGCCACAAAGCUUGAGAGCAUUUUCGGAUGCAGAGGCGGCAGCCUUCGGUGGCUCGAUAGCGCCAACGUUCUUAACUAUGACACGCAAAACGCGUGCUCCGUUGAAUGGAAUUUAUCAUG,-2.5

row,Variant,polymerase ribozyme fitness (log ratio)
1,GGAUCUUCUCGGUCUAACAAAAAAGACAAAUCUGCCACAAAGCUUGAGAGCAUCUUCGGAUGCAGAGGCGGCAGCCUUCGGUGGCGCGAUUGCGCCAACGUUCUGUACUAUGACACGCAAAACGCGUGCUCCGUUGAAUGGAGUUUAUCAUG,-4.11
2,GGAUCUUCUCGGUCUAUCAAAAAAGACAAAUCUGCCACAAAGCUUGAGGGCAUCUUCGGGUGCAGAGGCGGCAGCCUUCGGUGGCGCGAUGGCGCCAACGUUCUCAACUAUGACACGCAAAACGCGUGCUCCGUUGAAUGGAGUUUAUCAUG,-2.9
3,GGAUCUUCUCGGUCUAACAAAAAAGAAAAAGCUGGCACAAAGCUUGAGAGCAUCUUCGGAUGCAGAGGCGGCAGCCUUCGGUGGAGCGAUAGCGCCCAGGUUCUCAACUAUGACACGCAAAACGCGUGCUCCGUUGAAUGGAGUUUAUAAUG,≤ -4.2
4,GGAUCUUCUCGGUCUAACAAAAAAGACAAAUCUGCCACAAAGCUUGAGAGCAUCUUCGGAUGCAGAGGAGGCAGCCUUCGGUGGCGCGAUAGCGCUAACGUUCUCAACUAUGACACGCAACACGCGGGCUCCGUUGAAUGGAGUUUUUCAUG,-4.02
5,GGAUCUUCUCGGUCUAACAAAAAAGACCAAUCUGCCACAAAGCUUGAGAGCAUCUUCGGAUGCAGAGGCGGCAGCCUUUGGCGGCUCAAUAGCGCCAACGUUCUCUACUAUGACACGCAAAACGCGUGUUCCGUUGAAUGGAGUUUAGCAUU,≤ -4.2
6,GGAUCUUCUCGGUCUAACAAAAAAGACAAAUCUGCCACAGAGCAAGAGAGCAUCUUCGGAUGCAGAGGCGGCAGCCUUCGGUGGCGCGAUAGGGCCAACGUUCUCAACUAUGACACGCAUAACGCGUGCUCCGUUGAAUGUAGUUUAUCAUG,≤ -4.2
7,GGAUCUUCUCGGUCUAACAAAAAAGACAAAUCUGCCACAAAGCUUGAGAGCAUCUUCGGAUGCAGAGGCGGCAGCCUUCGGUGGCGCGCUAGCGCGAACGUUCUCAACUAUGACACGCAAAACGCGUGCUCCGUUGAAUGGAGUUUAUCAUG,-1.66
8,GGAUCUUCUCGGUAUAACAAAAAAGACAAAUCUGCCAUAAAGAUUGAGAGCAUCUACGGAUGCAGAGGCGGCAGCCUUCGGUGGUGCGAUAGCGCCAACGUUGUCAACUAUGACACGCAAAACGCGUGCUCCGUUGAAUGGAGUUUAUCAUG,≤ -4.2
9,GGAUCUUCUCGGUCUUACAAAAAAGACAAAUCUGCCACAAAGCUUGAGAACAUCUUCGGAUGCAGAGGCGGCAGCCUUCGGUCGAGCGACAGCGCCAACGUUCUCAACUAUGACACGCAAAACGCGUGCUCCGUUGAAUGGAGUUUAUCAUG,≤ -4.2
10,GGAUCUUCUCGGUCUAACAAGAAAGACAAAUCUGCCACAAAGUUUGAGAGCAUCAUCGGAUGCAGAGGCGGCAGCCUUCGGUUGCGCGAUAGCGCCAACGUUCUCAACUAUGACACGCAAAACGCGUGCUCCGUUGAAUGGAGGUUAUCAUG,≤ -4.2
11,GGAUCUUCUCGGUCUAACAAAAAAGACAAAUCUGCCACAAAGCUUGAGAGCAUCUUCGGAUGUAGAGGCGGCAGCCUUCGGUGGCGCGAUAGCGCCAACGUUCUCAACUAUGACACGCAAAACGCGUGCUCCGAUGAAUGGAGUUUAUCAUG,-2.26
12,GGAUCUUCUCGGUCUAACCAAAAAGACAAAUCUGCCACAGAGCUCGAGAGCAUCUUCGGAUGCAGAGGCGGCAGCCUUCGGUGGCGCGAUAACGCCAACGUUCUCAACUAUGACACGCAAAACGCGUGCUCCGUUGAAUGAAGUUUAUCAUG,≤ -4.2
13,GGAUCUUCUCGGUCUCACAAAAAAGACAAAUCUGCCACAAAGCUUGAGAGCAUCUUCGGAUGCAGAGGCGGCAGCCUUCGGUGGCGCGAUAGCGCCAACGUUCUCAACUAUGACACGCUAGACGCGUGCUCCGUCGAAUGGAGUUAAUCGUG,-4.12
14,GGAUCUUCUCGGUCUAACAAAAAAGACAGAUCUGCCACAAAGCUUGAGAGCAUCAUCGGAUGCAGAGGCGGCAGCCUUCGGUGGUGCGAUAGCGCUAACGUUCUUAACUAUGACACGCAAAACGCGUGCUCCGUUGAAUGGAGUUUAUCAUG,≤ -4.2
15,GGAUCUUCUCGGUCUAACAAAAAAGACAAAUCUGCCCCAAAGCUUGAGAGCAUCUUCGGAUGCAGAGGCGGCAGCCUUCGGUGGCGUGAUAACGCCAACGUUCUCAACUAUGACACGCUAAACGCGUGCUCCGUUAAAUGGAGUUUAUCAUG,-0.359
16,GGAUCUUCUCGGUCUAACAAAAAAGACAAAUCUGCCACAACGCUUGAGAGCAUCUUCGGAUGCAGGGGCGGCAGCCUUUGGUGGCCCGAUAGCGCCAACGUUAUAAGCUAUGACACGCAAAACGCGUGCUCCGUUGAAUGGAGUUUAUCAUG,≤ -4.2
17,GGAUCUUCUCGCUCUAACAAAAAAGACAAAUCUGCCACAAAGCUUGAGAGCAUCUUCGGAUGCAGAGGCGGCAGCCUUCGGUGGCGCGAGAGCGCCAACGUUCUCAACUAUGACACGCAAAACGCGUGCUCCGUUGAAUGGAGUUUAUCAUG,≤ -4.2
18,GGAUCUUCUCGGUCUAACAAAAAAGAUAAAUCUGCCACAAAGCUUUAGAGCAUCUUAGGAUGCAGAGGCGGCAGCCUUCGGUGGGGCGAUAGCGCCAACGUUCUCAACUAUGACACGCAAACCGCGUGCUCCGUUGAAUGGAGUUUAUCAUG,-3.63
19,GGAUCUUCUCGGUAUAACAAAAAAGACAAAUCUGCCACAAAGCUUGAGAGCAUCUUAGGAUGCAGAGGCGGCAGCCUUCGGUGGGGCGAUAGCGCCAACGUUCUCAACUAUGACACGCAAAACGCGUGCUCCGUUGAAUGGAGUUUAUCAUG,-3.75
